The supplement of paper PMC7877785
± gives the uncertainty stated by the source.

Experiment: self-splicing fitness, log relative to wild type (ln ratio); higher = more splicing; Tetrahymena group I intron in knt gene, E. coli kanamycin selection, DiMSum; sequences stand for … in CUCUCU…GGAGGGAAAAGUUAUCAGGCAUGCACCUGGUAGCUAGUCUUUAAACCAAUAGAUUGCAUCGGUUUAAAAGGCAAGACCGUCAAAUUGCGGGAAAGGGGUCAACAGCCGUUCAGUACCAAGUCUCAGGGGAAACUUUGAGAUGGCCUUGCAAAGGGUAUGGUAAUAAGCUGACGGACAUGGUCCUAACCACGCAGCCAAGUCCUAAGUCAACAGAUCUUCUGUUGAUAUGGAUGCAGUUCACAGACUAAAUGUCGGUCGGGGAAGAUGUAUUCUUCUCAUAAGAUAUAGUCGGACCUCUCCUUAAUGGGAGCUAGCGGAUGAAGUGAUGCAACACUGGAGCCGCUGGGAACUAAUUUGUAUGCGAAAGUAUAUUGAUUAGUUUUGGAGUACUCGUGGUCG
Procedure, shortened: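 The eight P1ex-region nucleotides of an intron in the knt kanamycin-resistance gene on pET-22b(+) were all randomised and the library put into E. coli BL21(DE3). Six replicate transformations were grown overnight at 37°C or 30°C on LB agar with or without 25 μg/mL kanamycin, together with 100 μg/mL carbenicillin, 50 μM IPTG and 0.2% rhamnose. Colonies were pooled and amplicon-sequenced on an Illumina HiSeq 2500. Fitness from DiMSum is the error-weighted combination of wild-type-normalised replicate fold changes, kanamycin over none.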

| Sequence | self-splicing fitness (ln) (30 °C) | self-splicing fitness (ln) (37 °C) |
| --- | --- | --- |
| CCGAAGCAAUAUUACGGGGG | -4.9 ± 0.46 | -2.26 ± 0.33 |
| CCGGAGCAAUAUUACGAGGU | -3.56 ± 0.46 | -2.6 ± 0.31 |
| UGUGAGCAAUAUUACGUCAA | -3.68 ± 0.35 | -2.65 ± 0.31 |
| UAUAAGCAAUAUUACGGGAU | -3.79 ± 0.32 | -2.86 ± 0.19 |
| ACGUAGCAAUAUUACGUUCG | -2.69 ± 0.12 | -0.757 ± 0.12 |
| AAACAGCAAUAUUACGGUAG | -2.8 ± 0.12 | -2.02 ± 0.12 |
| ACAUAGCAAUAUUACGUGAC | -3.15 ± 0.15 | -2.16 ± 0.15 |
| UGAUAGCAAUAUUACGGCGG | -0.138 ± 0.095 | -0.142 ± 0.13 |
| AAUCAGCAAUAUUACGCUAA | -0.408 ± 0.089 | 0.12 ± 0.092 |
| CAGCAGCAAUAUUACGUUUA | -2.11 ± 0.12 | -2.02 ± 0.12 |
| GUUAAGCAAUAUUACGAGUA | -2.5 ± 0.12 | -1.32 ± 0.095 |
| GAGGAGCAAUAUUACGCUUA | -1.5 ± 0.16 | -1.42 ± 0.21 |
| CGGCAGCAAUAUUACGGGUC | -2.95 ± 0.21 | -1.74 ± 0.22 |
| UAUGAGCAAUAUUACGAGCG | -1.32 ± 0.12 | -1.26 ± 0.16 |
| UACCAGCAAUAUUACGGAGC | -3 ± 0.15 | -3.22 ± 0.27 |
| UCAAAGCAAUAUUACGGUCU | -2.68 ± 0.16 | -1.58 ± 0.14 |
| CACUAGCAAUAUUACGUAGU | -3.45 ± 0.14 | -2.92 ± 0.18 |
| UCACAGCAAUAUUACGGCAU | -4.11 ± 0.22 | -2.26 ± 0.14 |
| UUAAAGCAAUAUUACGAAAC |  | -1.33 ± 0.29 |
| UCCGAGCAAUAUUACGGGGU | -2.7 ± 0.2 | -2.45 ± 0.28 |

| Sequence | self-splicing fitness (ln) (30 °C) | self-splicing fitness (ln) (37 °C) |
| --- | --- | --- |
| GGGCAGCAAUAUUACGAAAC | -0.715 ± 0.3 | -0.594 ± 0.28 |
| ACCAAGCAAUAUUACGAUGC | -2.45 ± 0.088 | -0.944 ± 0.11 |
| GCUCAGCAAUAUUACGCUCG | -1.1 ± 0.11 | -1.31 ± 0.18 |
| UGGGAGCAAUAUUACGCGUC | -0.5 ± 0.36 |  |
| CGCCAGCAAUAUUACGCCCA | -1.42 ± 0.18 | -0.853 ± 0.19 |
| AGUUAGCAAUAUUACGCCUG | -1.74 ± 0.21 | -1.46 ± 0.25 |
| UUAGAGCAAUAUUACGCGCG | -0.351 ± 0.16 | 0.871 ± 0.18 |
| UUCCAGCAAUAUUACGGCAU | -1.79 ± 0.085 | -0.66 ± 0.089 |
| GAUGAGCAAUAUUACGCUUU | -3.32 ± 0.21 | -3.79 ± 0.33 |
| AGGGAGCAAUAUUACGAUGC |  | -2.65 ± 0.41 |
| AUGGAGCAAUAUUACGUUCG | -1.89 ± 0.14 | -0.826 ± 0.19 |
| GACAAGCAAUAUUACGGAAC | -1.94 ± 0.1 | -1.69 ± 0.17 |
| AGCGAGCAAUAUUACGGGCG | -1.23 ± 0.08 | -0.431 ± 0.099 |
| AACCAGCAAUAUUACGUUUA | -1.01 ± 0.062 | -0.649 ± 0.074 |
| GCUUAGCAAUAUUACGUAAA | -0.47 ± 0.084 | 0.317 ± 0.1 |
| CAGAAGCAAUAUUACGCUAG | -2.82 ± 0.18 | -1.73 ± 0.2 |
| GCCGAGCAAUAUUACGCGAU | -2.66 ± 0.2 | -3.09 ± 0.37 |
| GGGAAGCAAUAUUACGUAUA | -2.79 ± 0.15 | -0.738 ± 0.094 |
| AAUAAGCAAUAUUACGGGGA | -3.01 ± 0.21 | -1.42 ± 0.16 |
